Assay results published in paper PMC3576881.

Target: TβR-II/TGF-β3 binary complex (UniProt P37173)
Experiment: SPR

**Q.** TβR-I 7–91 (domain or fragment) was tested. Which Kd did it give?
**A.** 310 nM
